Results as given in FireProtDB (doi:10.1110/ps.03220403).

B1: P217C|V226C, O00095 (parent)
chain: MKFLQVLPALIPAALAQTSCDQWATFTGNGYTVSNNLWGASAGSGFGCVTAVSLSGGASWHADWQWSGGQNNVKSYQNSQIAIPQKRTVNSISSMPTTASWSYSGSNIRANVAYDLFTAANPNHVTYSGDYELMIWLGKYGDIGPIGSSQGTVNVGGQSWTLYYGYNGAMQVYSFVAQTNTTNYSGDVKNFFNYLRDNKGYNAAGQYVLSYQFGTEPFTGSGTLNVASWTASIN
B2: C236P, Q8NJY3 (parent)
chain: MLKSALLLGAAAVSVQSASIPTIPANLEPRQIRSLCELYGYWSGNGYELLNNLWGKDTATSGWQCTYLDGTNNGGIQWSTAWEWQGAPDNVKSYPYVGKQIQRGRKISDINSMRTSVSWTYDRTDIRANVAYDVFTARDPDHPNWGGDYELMIWLARYGGIYPIGTFHSQVNLAGRTWDLWTGYNGNMRVYSFLPPSGDIRDFSCDIKDFFNYLERNHGYPAREQNLIVYQVGTECFTGGPARFTCRDFRADLW

What was measured:
[1] = variants of: B1; details: Hypocrea jecorina; pH 8; Thermal; CD; Bis-Tris propane ammonium acetate 0.05 M 0.05 M; reversible: No; structure 1H8V; whole UniProt chain shown
[2] = variants of: B2; details: Trichocladium griseum; pH 8; Thermal; CD; Bis-Tris propane ammonium acetate 0.05 M 0.05 M; reversible: No; structure 1OLR; whole UniProt chain shown

Row | Variant | Tm [1] | change of melting temperature, mutant - wild type (higher = more stable) [1] | Tm [2] | change of melting temperature, mutant - wild type (higher = more stable) [2]
1 | MKFLQVLPALIPAALAQTSCDQWATFTGNGYTVSNNLWGASAGSGFGCVTAVSLSGGASWHADWQWSGGQNNVKSYQNSQIAIPQKRTVNSISSMPTTASWSYSGSNIRANVAYDLFTAANPNHVTYSGDYELMIWLGKYGDIGPIGSSQGTVNVGGQSWTLYYGYNGAMQVYSFVAQTNTTNYSGDVKNFFNYLRDNKGYNAAGQYVLSYQFGTECFTGSGTLNCASWTASIN [P217C V226C] | 55.1 °C | 0.7 °C | – | –
2 | MKFLQVLPALIPAALAQTSCDQWATFTGNGYTVSNNLWGASAGSGFGCVTAVSLSGGASWHADWQWSGGQNNVKSYQNSQIAIPQKRTVNSISSMPTTASWSYSGSNIRANVAYDLFTAANPNHVTYSGDYELMIWLGKYGDIGPIGSSQGTVNVGGQSWTLYYGYNGAMQVYSFVAQTNTTNYSCDVKNFFNYLRDNKGYNAAGQYVLSYQFGTECFTGSGTLNCASWTASIN [P217C V226C G186C] | 54.5 °C | 0.1 °C | – | –
3 | MKFLQVLPALIPAALAQTSCDQWATFTGNGYTVSNNLWGASAGSGFGCVTAVSLSGGASWHADWQWSGGQNNVKSYQNSQIAIPQKRTVNSISSMPTTASWSYSGSNIRANVAYDLFTAANPNHVTYSGDYELMIWLGKYGDIGPIGSSQGTVNVGGQSWTLYYGYNGAMQVYSFVAQTNTTNYSCDVKNFFNYLRDNKGYNAAGQYVLSYQFGTECFTGSGTLNVASWTASIN [G186C P217C] | 55.1 °C | 0.7 °C | – | –
4 | MKFLQVLPALIPAALAQTSCDQWATFTGNGYTVSNNLWGASAGSGFGCVTAVSLSGGASWHADWQWSGGQNNVKSYQNSQIAIPQKRTVNSISSMPTTASWSYSGSNIRANVAYDLFTAANPNHVTYSGDYELMIWLGKYGDIGPIGSSQGTVNVGGQSWTLYYGYNGAMQVYSFVAQTNTTNYSGDVKNFFNYLRDNKGYNAAGQYVLSYQFGTECFTGSGTLNVASWTASIN [P217C] | 58.3 °C | 3.9 °C | – | –
5 | MKFLQVLPALIPAALAQTSCDQWATFTGNGYTVSNNLWGASAGSGFGCVTAVSLSGGASWHADWQWSGGQNNVKSYQNSQIAIPQKRTVNSISSMPTTASWSYSGSNIRANVAYDLFTAANPNHVTYSGDYELMIWLGKYGDIGPIGSSQGTVNVGGQSWTLYYGYNGAMQVYSFVAQTNTTNYSCDVKNFFNYLRDNKGYNAAGQYVLSYQFGTEPFTGSGTLNVASWTASIN [G186C] | 56.5 °C | 2.1 °C | – | –
6 | MKFLQVLPALIPAALAQTSCDQWATFTGNGYTVSNNLWGASAGSGFGCVTAVSLSGGASWHADWQWSGGQNNVKSYQNSQIAIPQKRTVNSISSMPTTASWSYSGSNIRANVAYDLFTAANPNHVTYSGDYELMIWLGKYGDIGPIGSSQGTVNVGGQSWTLYYGYNGAMQVYSFVAQTNTTNYSGDVKNFFNYLRDNKGYNAAGQYVLSYQFGTEPFTGSGTLNCASWTASIN [V226C] | 54.5 °C | 0.1 °C | – | –
7 | MLKSALLLGAAAVSVQSASIPTIPANLEPRQIRSLCELYGYWSGNGYELLNNLWGKDTATSGWQCTYLDGTNNGGIQWSTAWEWQGAPDNVKSYPYVGKQIQRGRKISDINSMRTSVSWTYDRTDIRANVAYDVFTARDPDHPNWGGDYELMIWLARYGGIYPIGTFHSQVNLAGRTWDLWTGYNGNMRVYSFLPPSGDIRDFSCDIKDFFNYLERNHGYPAREQNLIVYQVGTEPFTGGPARFTCRDFRADLW [C236P] | – | – | 59.5 °C | -9.2 °C
8 | MLKSALLLGAAAVSVQSASIPTIPANLEPRQIRSLCELYGYWSGNGYELLNNLWGKDTATSGWQCTYLDGTNNGGIQWSTAWEWQGAPDNVKSYPYVGKQIQRGRKISDINSMRTSVSWTYDRTDIRANVAYDVFTARDPDHPNWGGDYELMIWLARYGGIYPIGTFHSQVNLAGRTWDLWTGYNGNMRVYSFLPPSGDIRDFSCDIKDFFNYLERNHGYPAREQNLIVYQVGTESFTGGPARFTCRDFRADLW [C236S] | – | – | 63.3 °C | -5.4 °C
9 | MLKSALLLGAAAVSVQSASIPTIPANLEPRQIRSLCELYGYWSGNGYELLNNLWGKDTATSGWQCTYLDGTNNGGIQWSTAWEWQGAPDNVKSYPYVGKQIQRGRKISDINSMRTSVSWTYDRTDIRANVAYDVFTARDPDHPNWGGDYELMIWLARYGGIYPIGTFHSQVNLAGRTWDLWTGYNGNMRVYSFLPPSGDIRDFSGDIKDFFNYLERNHGYPAREQNLIVYQVGTECFTGGPARFTCRDFRADLW [C205G] | – | – | 69.9 °C | 1.2 °C
10 | MLKSALLLGAAAVSVQSASIPTIPANLEPRQIRSLCELYGYWSGNGYELLNNLWGKDTATSGWQCTYLDGTNNGGIQWSTAWEWQGAPDNVKSYPYVGKQIQRGRKISDINSMRTSVSWTYDRTDIRANVAYDVFTARDPDHPNWGGDYELMIWLARYGGIYPIGTFHSQVNLAGRTWDLWTGYNGNMRVYSFLPPSGDIRDFSSDIKDFFNYLERNHGYPAREQNLIVYQVGTECFTGGPARFTCRDFRADLW [C205S] | – | – | 68.9 °C | 0.2 °C
11 | MLKSALLLGAAAVSVQSASIPTIPANLEPRQIRSLCELYGYWSGNGYELLNNLWGKDTATSGWQCTYLDGTNNGGIQWSTAWEWQGAPDNVKSYPYVGKQIQRGRKISDINSMRTSVSWTYDRTDIRANVAYDVFTARDPDHPNWGGDYELMIWLARYGGIYPIGTFHSQVNLAGRTWDLWTGYNGNMRVYSFLPPSGDIRDFSCDIKDFFNYLERNHGYPAREQNLIVYQVGTECFTGGPARFTVRDFRADLW [C246V] | – | – | 69.5 °C | 0.8 °C
12 | MLKSALLLGAAAVSVQSASIPTIPANLEPRQIRSLCELYGYWSGNGYELLNNLWGKDTATSGWQCTYLDGTNNGGIQWSTAWEWQGAPDNVKSYPYVGKQIQRGRKISDINSMRTSVSWTYDRTDIRANVAYDVFTARDPDHPNWGGDYELMIWLARYGGIYPIGTFHSQVNLAGRTWDLWTGYNGNMRVYSFLPPSGDIRDFSCDIKDFFNYLERNHGYPAREQNLIVYQVGTECFTGGPARFTSRDFRADLW [C246S] | – | – | 63.1 °C | -5.6 °C
